Laboratory results: paper doi:10.1101/2022.11.15.516577 (bioRxiv, 2022)
Where two headings read alike, the source gives them in different places.

Experiments:
Assay in all cases: single-molecule TIRF colocalisation with deconvolution of colocalisation times
[1] = biological target: T1, N-terminally SNAP-tagged human β2-adrenergic receptor (SNAP-β2AR) (human, UniProt P07550 1-413, SNAP-Surface Alexa Fluor 647 on the SNAP-tag)
[2] = biological target: T1, N-terminally SNAP-tagged human …; remark: listed apart in the source
[3] = biological target: T1, N-terminally SNAP-tagged human …; remark: listed apart in the source

B1: C-terminally Halo-tagged bovine β-arrestin 2 (βArr2-Halo) (natural protein)
chain: MGEKPGTRVFKKSSPNCKLTVYLGKRDFVDHLDKVDPVDGVVLVDPDYLKDRKVFVTLTCAFRYGREDLDVLGLSFRKDLFIANYQAFPPTPNPPRPPTRLQERLLRKLGQHAHPFFFTIPQNLPCSVTLQPGPEDTGKACGVDFEIRAFCAKSLEEKSHKRNSVRLVIRKVQFAPEKPGPQPSAETTRHFLMSDRSLHLEASLDKELYYHGEPLNVNVHVTNNSTKTVKKIKVSVRQYADICLFSTAQYKCPVAQVEQDDQVSPSSTFCKVYTITPLLSNNREKRGLALDGKLKHEDTNLASSTIVKEGANKEVLGILVSYRVKVKLVVSRGGDVSVELPFVLMHPKPHDHIALPRPQSAAPETDAPVDTNLIEFETNYATDDDIVFEDFARLRLKGLKDEDYDDQFC
modifications: Halo-JF549 on the Halo-tag (single-molecule microscopy); Halo-R110 on the Halo-tag (BRET)
Which results are given for B1?
fold increase in kon versus basal [1]: ~1.4 fold; fold increase in kon versus basal [2]: ~1.8 fold; koff [3]: 1.34 s⁻¹
